Key:
[1] = molecular target: M44-modified A NTAA target peptides (M44-A-P2-peptide); test: Gini coefficient of P2 tolerance from multiplex encoding heatmap
[2] = molecular target: M17-modified S NTAA target peptides; test: encoding assay; P2 A;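 note: fraction of recording tags encoded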

| encoding yield [2] | Binder | P2 score [1] |
| --- | --- | --- |
| – | engineered M44-A binder (SEQ ID NO: 42) (designed binder, not shown: small tags and cut ends; large carriers) QVSVQPNFQQDKFLGRWFVAGLASNSSWDREKVAALSGAKMVVAPATDGGLNVTRTMLRKNQCETYTGLLQPAGSLGSYSWRSPHPGSTGSESVVETDYDQYALVYGQGSKGPGEDLRAAALWSRTQTPRAELKEKFTAFSKAQGFTEDTIVFLPQTDKCMTEQ | 0.376 |
| 0.01 | upgraded binder after additional maturation round (SEQ ID NO: 62) (designed binder, not shown: small tags and cut ends; large carriers) TVPDRSEIAGKWYVVALASNTEFYLRGKDRVKSAMVRISFQGEDELKVSSAVPSPNGCYKVERTWKKTSDDGEVYNSRAAKLKVEVLDTDYKSYAVIYATRVKDRRTDHQMILYSRSPDVSPAATAIFRKLAGERNYTDEMVAMLPRQEECTVDEV | – |

Reference: US20230220589A1
